Measurements published in the supplement of paper PMC7877785.
± gives the uncertainty stated by the source.

Assay: self-splicing fitness, log relative to wild type (ln ratio); higher = more splicing; Tetrahymena group I intron in knt gene, E. coli kanamycin selection, DiMSum; sequences stand for … in CUCUCU…GGAGGGAAAAGUUAUCAGGCAUGCACCUGGUAGCUAGUCUUUAAACCAAUAGAUUGCAUCGGUUUAAAAGGCAAGACCGUCAAAUUGCGGGAAAGGGGUCAACAGCCGUUCAGUACCAAGUCUCAGGGGAAACUUUGAGAUGGCCUUGCAAAGGGUAUGGUAAUAAGCUGACGGACAUGGUCCUAACCACGCAGCCAAGUCCUAAGUCAACAGAUCUUCUGUUGAUAUGGAUGCAGUUCACAGACUAAAUGUCGGUCGGGGAAGAUGUAUUCUUCUCAUAAGAUAUAGUCGGACCUCUCCUUAAUGGGAGCUAGCGGAUGAAGUGAUGCAACACUGGAGCCGCUGGGAACUAAUUUGUAUGCGAAAGUAUAUUGAUUAGUUUUGGAGUACUCGUGGUCG
In short: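 Fitness was computed with DiMSum as the error-weighted combination of replicate fold changes, kanamycin versus none, each normalised to wild type. The library randomised all eight intron nucleotides of the P1ex region, with the intron placed in the knt kanamycin-resistance gene on pET-22b(+) in E. coli BL21(DE3). Six replicate transformations were grown overnight at 37°C or 30°C on LB agar with or without 25 μg/mL kanamycin, plus 100 μg/mL carbenicillin, 50 μM IPTG and 0.2% rhamnose. Pooled colonies were amplicon-sequenced on an Illumina HiSeq 2500.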

Sequence	self-splicing fitness (ln) (30 °C)	self-splicing fitness (ln) (37 °C)
AGCAAGCAAUAUUACGAUGC	-2.08 ± 0.11	-1.71 ± 0.14
AACGAGCAAUAUUACGAGAU	-4.25 ± 0.36	-3.02 ± 0.3
GCUCAGCAAUAUUACGCUUU	-0.857 ± 0.077	-0.887 ± 0.083
UCCUAGCAAUAUUACGUAAU	-2.99 ± 0.15	-2.37 ± 0.18
GUCUAGCAAUAUUACGCACA	-0.72 ± 0.12	-0.113 ± 0.14
AUUGAGCAAUAUUACGUGAG	-2.08 ± 0.11	-1.97 ± 0.14
UCGCAGCAAUAUUACGAACC	-3.4 ± 0.4	-2.44 ± 0.41
UCGAAGCAAUAUUACGGGCC	-2.98 ± 0.38	-0.79 ± 0.33
UGAAAGCAAUAUUACGAGAG	-4.15 ± 0.33	-1.61 ± 0.14
CACGAGCAAUAUUACGCAGU	-3.4 ± 0.31	-3.5 ± 0.37
CCCUAGCAAUAUUACGGUAC	-4.33 ± 0.34	-3.04 ± 0.32
UUAUAGCAAUAUUACGAAGC	-2.27 ± 0.42	
UCUGAGCAAUAUUACGCGCG		-1.69 ± 0.46
GACCAGCAAUAUUACGAUGG	-3.69 ± 0.19	-2.82 ± 0.21
GGAGAGCAAUAUUACGGGCU	-2.73 ± 0.27	
AUUCAGCAAUAUUACGUGUA	-1.7 ± 0.11	-1.02 ± 0.092
CAGAAGCAAUAUUACGCGUG	-4.79 ± 0.27	-2.62 ± 0.12
GGGCAGCAAUAUUACGUCCC	-2.38 ± 0.46	
AUCCAGCAAUAUUACGCCCA	-0.76 ± 0.14	-0.212 ± 0.15
AUUGAGCAAUAUUACGGAGU	-3.76 ± 0.15	-1.86 ± 0.1
UCCUAGCAAUAUUACGCCAG	-3.13 ± 0.26	-2.68 ± 0.26
GUCUAGCAAUAUUACGGCUC	-0.737 ± 0.086	0.57 ± 0.12
CGUCAGCAAUAUUACGCACC	-1.51 ± 0.1	-0.192 ± 0.13
ACAUAGCAAUAUUACGAAAA	-2.4 ± 0.25	-3.31 ± 0.3
ACUUAGCAAUAUUACGGAUU	-1.18 ± 0.12	-0.862 ± 0.14

Sequence	self-splicing fitness (ln) (30 °C)	self-splicing fitness (ln) (37 °C)
AGGCAGCAAUAUUACGCGUC	-3.34 ± 0.3	-2.54 ± 0.3
UUAGAGCAAUAUUACGUCAC		-2.76 ± 0.48
AGUAAGCAAUAUUACGGUCC	-0.766 ± 0.061	-0.91 ± 0.08
ACCAAGCAAUAUUACGCCAU	-0.983 ± 0.12	-1.56 ± 0.16
GAGCAGCAAUAUUACGCAUU	-3.04 ± 0.2	-2.23 ± 0.24
GCCAAGCAAUAUUACGCGUG	-3.46 ± 0.11	-1.97 ± 0.1
CUAUAGCAAUAUUACGGAGU	-4.03 ± 0.28	-2.86 ± 0.26
UAAUAGCAAUAUUACGCUCA	-0.0964 ± 0.088	-0.235 ± 0.096
AGCCAGCAAUAUUACGGAAA	-1.88 ± 0.3	-1.3 ± 0.25
GUACAGCAAUAUUACGAACG	-1.92 ± 0.17	-1.22 ± 0.19
UUGUAGCAAUAUUACGUCAG	-1.12 ± 0.22	-0.45 ± 0.19
UACAAGCAAUAUUACGCAGA	-2.31 ± 0.15	-1.29 ± 0.1
CAUAAGCAAUAUUACGUCUC	-3.68 ± 0.3	-2.52 ± 0.29
AGGGAGCAAUAUUACGACAU	-2.607 ± 0.025	-2.17 ± 0.041
GUUGAGCAAUAUUACGGGCU	-2.65 ± 0.26	-2.23 ± 0.49
GGUUAGCAAUAUUACGCAGA	-1.17 ± 0.24	-2.02 ± 0.26
AAGAAGCAAUAUUACGUGAU	-1.96 ± 0.11	-2.09 ± 0.11
GAACAGCAAUAUUACGAUUA	-0.501 ± 0.11	-0.296 ± 0.098
CUUAAGCAAUAUUACGUUGC		-2.03 ± 0.35
AGAGAGCAAUAUUACGGACU	-0.413 ± 0.12	-0.495 ± 0.17
CCCCAGCAAUAUUACGCCGC	-2.93 ± 0.31	-2.26 ± 0.42
CACCAGCAAUAUUACGCGAU	-2.55 ± 0.14	-2.61 ± 0.21
GCCGAGCAAUAUUACGCGUG	-2.05 ± 0.088	-1.32 ± 0.091
GCUCAGCAAUAUUACGGUCU	-0.866 ± 0.087	-0.0674 ± 0.12
ACAGAGCAAUAUUACGGAUU	-3.67 ± 0.18	-1.84 ± 0.14

Sequence	self-splicing fitness (ln) (30 °C)	self-splicing fitness (ln) (37 °C)
CGGCAGCAAUAUUACGCUGU	-3.8 ± 0.14	-2.29 ± 0.15
GCUUAGCAAUAUUACGAAAU	-0.692 ± 0.076	-0.498 ± 0.095
GUCAAGCAAUAUUACGAAAA	-1.95 ± 0.41	-2.53 ± 0.31
CAGAAGCAAUAUUACGGGAG	-1.6 ± 0.12	-0.856 ± 0.12
GGCGAGCAAUAUUACGGCAC	-1.36 ± 0.13	-0.093 ± 0.14
CACAAGCAAUAUUACGACGC	-2.86 ± 0.32	-1.17 ± 0.18
UUGGAGCAAUAUUACGACUA	-1.58 ± 0.41	
ACCUAGCAAUAUUACGCCGA	-2.23 ± 0.13	-1.01 ± 0.13
ACUCAGCAAUAUUACGCAAC	-2.14 ± 0.17	-2.43 ± 0.26
CCGUAGCAAUAUUACGUAGA	-3.28 ± 0.22	-1.41 ± 0.13
UACGAGCAAUAUUACGAAGC	-2.71 ± 0.35	-0.927 ± 0.34
CCUUAGCAAUAUUACGUUGC	-3.68 ± 0.38	-3.31 ± 0.3
GGUAAGCAAUAUUACGGCUC	-0.214 ± 0.14	-0.443 ± 0.16
GCUGAGCAAUAUUACGAUUC	-0.602 ± 0.1	-0.665 ± 0.11
GGUAAGCAAUAUUACGUUCC	-2.47 ± 0.18	-2.85 ± 0.24
CGGGAGCAAUAUUACGUCAU	-3.09 ± 0.49	
CGUCAGCAAUAUUACGCGCC	-1.58 ± 0.16	-0.529 ± 0.29
AGCUAGCAAUAUUACGGGAG	-1.59 ± 0.13	-2.54 ± 0.19
GGGUAGCAAUAUUACGCCAU	-2.4 ± 0.26	-1.32 ± 0.19
GAGCAGCAAUAUUACGGCAC	-0.575 ± 0.1	-0.126 ± 0.17
GUAGAGCAAUAUUACGCCAU	-1.22 ± 0.39	
GUAAAGCAAUAUUACGCCAG	-1.89 ± 0.083	-1.21 ± 0.14
CAAAAGCAAUAUUACGGCAU	-1.85 ± 0.11	-1.4 ± 0.14
GCAUAGCAAUAUUACGAGGC	-3.26 ± 0.43	-1.27 ± 0.36
UUUCAGCAAUAUUACGCAAA	-2.1 ± 0.15	-0.378 ± 0.13

Sequence	self-splicing fitness (ln) (30 °C)	self-splicing fitness (ln) (37 °C)
UAGAAGCAAUAUUACGAGCC		-2.23 ± 0.26
UUGUAGCAAUAUUACGGCCU	-0.844 ± 0.2	-0.408 ± 0.25
AACCAGCAAUAUUACGACAC	-1.07 ± 0.08	-0.426 ± 0.1
UCCUAGCAAUAUUACGGUCA	-0.978 ± 0.079	-0.106 ± 0.089
AACUAGCAAUAUUACGAUUA	-0.307 ± 0.087	-0.0303 ± 0.11
UCGUAGCAAUAUUACGUAAA	-2.09 ± 0.2	-0.594 ± 0.17
GGAGAGCAAUAUUACGAUGG	-4.43 ± 0.46	
GAGAAGCAAUAUUACGUCAC	-3.6 ± 0.29	-0.67 ± 0.24
GGUUAGCAAUAUUACGGCCC	-1.23 ± 0.43	
UAUUAGCAAUAUUACGCAAG	-2.29 ± 0.16	-1.8 ± 0.18
UGUUAGCAAUAUUACGACUA	0.407 ± 0.22	-0.164 ± 0.19
CUGGAGCAAUAUUACGCUUG	-3.94 ± 0.34	-2.35 ± 0.45
GGCUAGCAAUAUUACGGGUC	-2.91 ± 0.28	-2.26 ± 0.24
AGUUAGCAAUAUUACGGUCA	-1.08 ± 0.077	-0.46 ± 0.085
CCACAGCAAUAUUACGAUAG	-1.17 ± 0.065	0.206 ± 0.084
GACCAGCAAUAUUACGUGGU	-2.67 ± 0.095	-3.29 ± 0.15
AGUCAGCAAUAUUACGCCAU	-2.86 ± 0.25	-1.1 ± 0.21
AUACAGCAAUAUUACGUCGU	-1.3 ± 0.07	-0.0346 ± 0.077
UGAUAGCAAUAUUACGAUGU		-2.04 ± 0.34
CCCCAGCAAUAUUACGAAAG	-4.79 ± 0.23	-1.93 ± 0.12
CCGGAGCAAUAUUACGAUAC		-1.97 ± 0.36
AUUAAGCAAUAUUACGCCCC	-1.21 ± 0.31	0.0189 ± 0.48
CUAGAGCAAUAUUACGCCAU	-3.39 ± 0.19	-3.11 ± 0.29
AUUCAGCAAUAUUACGGAAC	-2.54 ± 0.15	-1.01 ± 0.17
